Experimental data as given in patent US20190177366A1 (published 2019).
Values joined by “and” are separate entries in the source; they are usually repeats but may differ in a detail not shown here. Equal entries are not always repeated. Bridge positions count the residues as written; N and C are the ends. Square brackets hold non-standard residues; d marks the D form. Primed or numbered codes have the meaning given here. * marks the point of attachment. Fmoc = O=C(OCC1c2ccccc2-c2ccccc21)*; Cit = NC(=O)NCCC[C@H](N)C(=O)O; Hyp′ = 3-hydroxyproline

Assays:
[1] = molecular target: T1, His-tagged, full-length PCSK9 (human, UniProt A8T644 31-152; Q8NBP7 153-692); assay: TR-FRET competition; competitor EGF(A)-Fc on His-PCSK9
T1 construct: Target protein of the PCSK9/EGF(A) TR-FRET assay (10 nM); also called His-PCSK9; proprotein convertase subtilisin/kexin type 9
T1 sequence (A8T644 31-152 limits assumed, chain 1 of 2): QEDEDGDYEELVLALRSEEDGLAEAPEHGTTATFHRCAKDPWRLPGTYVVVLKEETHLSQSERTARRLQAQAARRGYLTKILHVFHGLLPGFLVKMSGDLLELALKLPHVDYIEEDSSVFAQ
T1 sequence (A8T644 other isoform, or with tags, fused parts or gaps limits assumed, chain 2 of 2): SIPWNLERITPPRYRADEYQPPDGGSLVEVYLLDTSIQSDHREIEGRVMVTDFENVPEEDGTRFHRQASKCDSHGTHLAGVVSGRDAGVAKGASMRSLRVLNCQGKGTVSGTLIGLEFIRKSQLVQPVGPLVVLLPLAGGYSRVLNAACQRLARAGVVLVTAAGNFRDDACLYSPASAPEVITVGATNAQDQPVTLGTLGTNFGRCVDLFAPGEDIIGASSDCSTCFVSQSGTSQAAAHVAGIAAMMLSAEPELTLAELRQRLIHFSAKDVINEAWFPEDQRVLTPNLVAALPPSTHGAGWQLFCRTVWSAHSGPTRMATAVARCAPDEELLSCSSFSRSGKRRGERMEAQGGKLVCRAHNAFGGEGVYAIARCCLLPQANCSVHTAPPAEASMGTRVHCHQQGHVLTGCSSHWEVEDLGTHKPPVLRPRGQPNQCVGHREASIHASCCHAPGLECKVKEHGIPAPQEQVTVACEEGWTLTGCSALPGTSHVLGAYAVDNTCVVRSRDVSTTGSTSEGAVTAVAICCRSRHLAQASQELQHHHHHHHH

[2] = molecular target: T2, human PCSK9 (proprotein convertase subtilisin/kexin type 9), His-tagged, full-length (human, UniProt A8T644 31-152; Q8NBP7 153-692, limits assumed); assay: TR-FRET competition vs EGF(A)-Fc on His-PCSK9
T2 construct: The secreted protein is the prodomain plus the catalytic/Cys-rich part (N-terminus S153) after autocleavage; also called His-PCSK9; NARC-1
T2 sequence (A8T644 31-152 limits assumed, chain 1 of 2): as the sequence (A8T644 31-152 limits assumed, chain 1 of 2) above
T2 sequence (A8T644 other isoform, or with tags, fused parts or gaps limits assumed, chain 2 of 2): as the sequence (A8T644 other isoform, or with tags, fused parts or gaps limits assumed, chain 2 of 2) above

B1: Compound 40 (peptide)
peptide: Ac-GSGCWNLKRIGSQGCW-NH2
modifications: disulfide 4-15 (inferred)
- IC50 [1]: 5.96 µM

B2: Compound 63 (peptide)
peptide: Ac-MCLWNLKRIGSQCEY-NH2
modifications: disulfide 2-13
SMILES: CC[C@H](C)[C@@H]1NC(=O)[C@H](CCCNC(=N)N)NC(=O)[C@H](CCCCN)NC(=O)[C@H](CC(C)C)NC(=O)[C@H](CC(N)=O)NC(=O)[C@H](Cc2c[nH]c3ccccc23)NC(=O)[C@H](CC(C)C)NC(=O)[C@@H](NC(=O)[C@H](CCSC)NC(C)=O)CSSC[C@@H](C(=O)N[C@@H](CCC(=O)O)C(=O)N[C@@H](Cc2ccc(O)cc2)C(N)=O)NC(=O)[C@H](CCC(N)=O)NC(=O)[C@H](CO)NC(=O)CNC1=O
- IC50 [1]: 14.6 µM

B3: Compound 65 (peptide)
peptide: Ac-WCLWNLKRIGSQCEY-NH2
modifications: disulfide 2-13
SMILES: CC[C@H](C)[C@@H]1NC(=O)[C@H](CCCNC(=N)N)NC(=O)[C@H](CCCCN)NC(=O)[C@H](CC(C)C)NC(=O)[C@H](CC(N)=O)NC(=O)[C@H](Cc2c[nH]c3ccccc23)NC(=O)[C@H](CC(C)C)NC(=O)[C@@H](NC(=O)[C@H](Cc2c[nH]c3ccccc23)NC(C)=O)CSSC[C@@H](C(=O)N[C@@H](CCC(=O)O)C(=O)N[C@@H](Cc2ccc(O)cc2)C(N)=O)NC(=O)[C@H](CCC(N)=O)NC(=O)[C@H](CO)NC(=O)CNC1=O
- IC50 [1]: > 50 µM

B4: Compound 95 (peptide)
peptide: Ac-FCLWNLKRIGSQCEY-NH2
modifications: disulfide 2-13
SMILES: CC[C@H](C)[C@@H]1NC(=O)[C@H](CCCNC(=N)N)NC(=O)[C@H](CCCCN)NC(=O)[C@H](CC(C)C)NC(=O)[C@H](CC(N)=O)NC(=O)[C@H](Cc2c[nH]c3ccccc23)NC(=O)[C@H](CC(C)C)NC(=O)[C@@H](NC(=O)[C@H](Cc2ccccc2)NC(C)=O)CSSC[C@@H](C(=O)N[C@@H](CCC(=O)O)C(=O)N[C@@H](Cc2ccc(O)cc2)C(N)=O)NC(=O)[C@H](CCC(N)=O)NC(=O)[C@H](CO)NC(=O)CNC1=O
- IC50 [1]: > 50 µM

B5: Compound 64 (peptide)
peptide: Ac-DCLWNLKRIGSQCEY-NH2
modifications: disulfide 2-13
SMILES: CC[C@H](C)[C@@H]1NC(=O)[C@H](CCCNC(=N)N)NC(=O)[C@H](CCCCN)NC(=O)[C@H](CC(C)C)NC(=O)[C@H](CC(N)=O)NC(=O)[C@H](Cc2c[nH]c3ccccc23)NC(=O)[C@H](CC(C)C)NC(=O)[C@@H](NC(=O)[C@H](CC(=O)O)NC(C)=O)CSSC[C@@H](C(=O)N[C@@H](CCC(=O)O)C(=O)N[C@@H](Cc2ccc(O)cc2)C(N)=O)NC(=O)[C@H](CCC(N)=O)NC(=O)[C@H](CO)NC(=O)CNC1=O
- IC50 [1]: > 50 µM

B6: Compound 35 (peptide)
peptide: Ac-DLMPWNLVRIGLLR-NH2
- IC50 [2]: > 50 µM

B7: Compound 54 (peptide)
peptide: Ac-DLMPWNLVRIGLLA-NH2
- IC50 [2]: > 50 µM

B8: Compound 61 (peptide)
peptide: Ac-DLMPWNAVRIGLLR-NH2
- IC50 [2]: > 50 µM

B9: Compound 58 (peptide)
peptide: Ac-DLMPWNLVRAGLLR-NH2
- IC50 [2]: > 50 µM

B10: Compound 59 (peptide)
peptide: Ac-DLMPWNLVAIGLLR-NH2
- IC50 [2]: > 50 µM

B11: Compound 60 (peptide)
peptide: Ac-DLMPWNLARIGLLR-NH2
- IC50 [2]: > 50 µM

B12: Compound 44 (peptide)
peptide: Ac-DAMPWNLVRIGLLR-NH2
- IC50 [2]: > 50 µM

B13: Compound 42 (peptide)
peptide: Ac-DLMAWNLVRIGLLR-NH2
- IC50 [2]: > 50 µM

B14: Compound 43 (peptide)
peptide: Ac-DLAPWNLVRIGLLR-NH2
- IC50 [2]: > 50 µM

B15: Compound 56 (peptide)
peptide: Ac-DLMPWNLVRIGALR-NH2
- IC50 [2]: > 50 µM

B16: Compound 41 (peptide)
peptide: Ac-DLMPANLVRIGLLR-NH2
- IC50 [2]: > 50 µM

B17: Compound 62 (peptide)
peptide: Ac-DLMPWALVRIGLLR-NH2
- IC50 [2]: > 50 µM

B18: Compound 89 (peptide)
peptide: H-WCLWNLKRIGSQCWF-NH2
modifications: disulfide 2-13
SMILES: CC[C@H](C)[C@@H]1NC(=O)[C@H](CCCNC(=N)N)NC(=O)[C@H](CCCCN)NC(=O)[C@H](CC(C)C)NC(=O)[C@H](CC(N)=O)NC(=O)[C@H](Cc2c[nH]c3ccccc23)NC(=O)[C@H](CC(C)C)NC(=O)[C@@H](NC(=O)[C@@H](N)Cc2c[nH]c3ccccc23)CSSC[C@@H](C(=O)N[C@@H](Cc2c[nH]c3ccccc23)C(=O)N[C@@H](Cc2ccccc2)C(N)=O)NC(=O)[C@H](CCC(N)=O)NC(=O)[C@H](CO)NC(=O)CNC1=O
- IC50 [1]: 6.9 µM

B19: Compound 87 (peptide)
peptide: Ac-GCLWNLKRIGSQCWF-NH2
modifications: disulfide 2-13
SMILES: CC[C@H](C)[C@@H]1NC(=O)[C@H](CCCNC(=N)N)NC(=O)[C@H](CCCCN)NC(=O)[C@H](CC(C)C)NC(=O)[C@H](CC(N)=O)NC(=O)[C@H](Cc2c[nH]c3ccccc23)NC(=O)[C@H](CC(C)C)NC(=O)[C@@H](NC(=O)CNC(C)=O)CSSC[C@@H](C(=O)N[C@@H](Cc2c[nH]c3ccccc23)C(=O)N[C@@H](Cc2ccccc2)C(N)=O)NC(=O)[C@H](CCC(N)=O)NC(=O)[C@H](CO)NC(=O)CNC1=O
- IC50 [1]: > 50 µM

B20: Compound 21 (peptide)
peptide: Ac-CWNLKRIGSQGC-NH2
modifications: disulfide 1-12 (inferred)
- IC50 [1]: > 50 µM

B21: Compound 66 (peptide)
peptide: H-WCLWNLKRIGSQCWF-OH
modifications: disulfide 2-13
SMILES: CC[C@H](C)[C@@H]1NC(=O)[C@H](CCCNC(=N)N)NC(=O)[C@H](CCCCN)NC(=O)[C@H](CC(C)C)NC(=O)[C@H](CC(N)=O)NC(=O)[C@H](Cc2c[nH]c3ccccc23)NC(=O)[C@H](CC(C)C)NC(=O)[C@@H](NC(=O)[C@@H](N)Cc2c[nH]c3ccccc23)CSSC[C@@H](C(=O)N[C@@H](Cc2c[nH]c3ccccc23)C(=O)N[C@@H](Cc2ccccc2)C(=O)O)NC(=O)[C@H](CCC(N)=O)NC(=O)[C@H](CO)NC(=O)CNC1=O
- IC50 [1]: 31.3 µM

B22: Compound 90 (peptide)
peptide: Ac-WCLWNLKRIGSQCWF-OH
modifications: disulfide 2-13
SMILES: CC[C@H](C)[C@@H]1NC(=O)[C@H](CCCNC(=N)N)NC(=O)[C@H](CCCCN)NC(=O)[C@H](CC(C)C)NC(=O)[C@H](CC(N)=O)NC(=O)[C@H](Cc2c[nH]c3ccccc23)NC(=O)[C@H](CC(C)C)NC(=O)[C@@H](NC(=O)[C@H](Cc2c[nH]c3ccccc23)NC(C)=O)CSSC[C@@H](C(=O)N[C@@H](Cc2c[nH]c3ccccc23)C(=O)N[C@@H](Cc2ccccc2)C(=O)O)NC(=O)[C@H](CCC(N)=O)NC(=O)[C@H](CO)NC(=O)CNC1=O
- IC50 [1]: 29.2 µM

B23: Compound 39 (peptide)
peptide: Ac-CWNLKRIGSQGCW-NH2
modifications: disulfide 1-12 (inferred)
- IC50 [1]: > 50 µM

B24: Compound 98 (peptide)
peptide: Fmoc-GSGCWNLKRIGSQGC-NH2
modifications: disulfide 4-15
SMILES: CC[C@H](C)[C@@H]1NC(=O)[C@H](CCCNC(=N)N)NC(=O)[C@H](CCCCN)NC(=O)[C@H](CC(C)C)NC(=O)[C@H](CC(N)=O)NC(=O)[C@H](Cc2c[nH]c3ccccc23)NC(=O)[C@@H](NC(=O)CNC(=O)[C@H](CO)NC(=O)CNC(=O)OCC2c3ccccc3-c3ccccc32)CSSC[C@@H](C(N)=O)NC(=O)CNC(=O)[C@H](CCC(N)=O)NC(=O)[C@H](CO)NC(=O)CNC1=O
- IC50 [1]: 37.6 µM

B25: Compound 88 (peptide)
peptide: Ac-FCLWNLARIGSQCWF-NH2
modifications: disulfide 2-13
SMILES: CC[C@H](C)[C@@H]1NC(=O)[C@H](CCCNC(=N)N)NC(=O)[C@H](C)NC(=O)[C@H](CC(C)C)NC(=O)[C@H](CC(N)=O)NC(=O)[C@H](Cc2c[nH]c3ccccc23)NC(=O)[C@H](CC(C)C)NC(=O)[C@@H](NC(=O)[C@H](Cc2ccccc2)NC(C)=O)CSSC[C@@H](C(=O)N[C@@H](Cc2c[nH]c3ccccc23)C(=O)N[C@@H](Cc2ccccc2)C(N)=O)NC(=O)[C@H](CCC(N)=O)NC(=O)[C@H](CO)NC(=O)CNC1=O
- IC50 [1]: 17.9 µM

B26: Compound 37 (peptide)
peptide: Ac-SGCRL[Hyp′]WNLQRIGLPC-NH2
modifications: disulfide 3-16
- IC50 [1]: > 50 µM

B27: Compound 36 (peptide)
peptide: Ac-SGCFIPWNLQ[Cit]IGLPC-NH2
modifications: disulfide 3-16
SMILES: CC[C@H](C)[C@@H]1NC(=O)[C@H](CCCNC(N)=O)NC(=O)[C@H](CCC(N)=O)NC(=O)[C@H](CC(C)C)NC(=O)[C@H](CC(N)=O)NC(=O)[C@H](Cc2c[nH]c3ccccc23)NC(=O)[C@@H]2CCCN2C(=O)[C@H]([C@@H](C)CC)NC(=O)[C@H](Cc2ccccc2)NC(=O)[C@@H](NC(=O)CNC(=O)[C@H](CO)NC(C)=O)CSSC[C@@H](C(N)=O)NC(=O)[C@@H]2CCCN2C(=O)[C@H](CC(C)C)NC(=O)CNC1=O
- IC50 [1]: > 50 µM

B28: Compound 22 (peptide)
peptide: Ac-GSGCWNLKRIGSQGC-NH2
modifications: disulfide 4-15 (inferred)
- IC50 [1]: 42 µM and > 50 µM
